Here are results for one substance from article PMC9652086.

Broadly, the Kd is the equilibrium constant for the complex coming apart.

This experiment addresses h4#147D, humanized IgG4-formatted anti-CD147 antibody (IgG4Pro, heavy chain S228P) (human). The experiment can be described thus: SPR; Biacore T200; purified h4#147D captured on the sensor chip with a human antibody capture kit, recombinant human or monkey CD147 injected; 1:1 fitting model.

Sequence of h4#147D, humanized IgG4-formatted anti-CD147 antibody (IgG4Pro, heavy chain S228P) (human) (heavy, as listed by the source, chain 1 of 2): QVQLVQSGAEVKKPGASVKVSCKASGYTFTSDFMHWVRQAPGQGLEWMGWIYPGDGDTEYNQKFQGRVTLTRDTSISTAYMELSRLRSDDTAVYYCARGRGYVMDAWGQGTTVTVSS
Sequence of h4#147D, humanized IgG4-formatted anti-CD147 antibody (IgG4Pro, heavy chain S228P) (human) (light, as listed by the source, chain 2 of 2): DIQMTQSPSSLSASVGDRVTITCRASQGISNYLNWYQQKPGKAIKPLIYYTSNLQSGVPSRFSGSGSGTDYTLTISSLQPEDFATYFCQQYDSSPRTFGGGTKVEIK

For “recombinant monkey CD147 protein (natural protein)”, the Kd was 5.8 nM.
